Data reported in PMC8373119.

Columns and labels:
[1] = target: ΔLaminin G1_Celsr3 (mouse Celsr3-Flag lacking the laminin G1 domain) (mouse) (UniProt Q91ZI0); assay: co-IP
[2] = target: ΔEGF/Lam_Celsr3 (mouse Celsr3-Flag lacking all the EGF repeats and laminin domains) (mouse) (UniProt Q91ZI0); assay: co-IP

percent reduction of the interaction against wild-type Celsr3 [1]: 66% | percent reduction of the interaction against wild-type Celsr3 [2]: 68%
B1: mouse Frizzled3 (Frizzled3-HA) (receptor)
chain: HSLFSCEPITLRMCQDLPYNTTFMPNLLNHYDQQTAALAMEPFHPMVNLDCSRDFRPFLCALYAPICMEYGRVTLPCRRLCQRAYSECSKLMEMFGVPWPEDMECSRFPDCDEPYPRLVDLNLVGDPTEGAPVAVQRDYGFWCPRELKIDPDLGYSFLHVRDCSPPCPNMYFRREELSFARYFIGLISIICLSATLFTFLTFLIDVTRFRYPERPIIFYAVCYMMVSLIFFIGFLLEDRVACNASSPAQYKASTVTQGSHNKACTMLFMVLYFFTMAGSVWWVILTITWFLAAVPKWGSEAIEKKALLFHASAWGIPGTLTIILLAMNKIEGDNISGVCFVGLYDVDALRYFVLAPLCLYVVVGVSLLLAGIISLNRVRIEIPLEKENQDKLVKFMIRIGVFSILYLVPLLVVIGCYFYEQAYRGIWETTWIQERCREYHIPCPYQVTQMSRPDLILFLMKYLMALIVGIPSIFWVGSKKTCFEWASFFHGRRKKEIVNESRQVLQEPDFAQSLLRDPNTPIIRKSRGTSTQGTSTHASSTQLAMVDDQRSKAGSVHSKVSSYHGSLHRSRDGRYTPCSYRGMEERLPHGSMSRLTDHSRHSSSHRLNEQSRHSSIRDLSNNPMTHITHGTSMNRVIEEDGTSA
